Reference: the PETadex activity labels
Substitutions are numbered along the chain they refer to.

B1: unnamed (protein)
chain: MTVTDIILIHGALNRGACYDAVVPLLEARGYRVHAPDLTGHTPGDGGHLSVVDMEHYTRPVADILARAEGQSILLGHSLGGASISWLAQHHPDKVAGLIYLTAVLTAPGITPETFVLPGEPNRGTPHALDLIQPVDEGRGLQADFSRLERLREVFMGDYPGEGMPPAEQFIQTQSTVPFGTPNPMEGRALEIPRLYIEALDDVVIPIAVQRQMQKEFPGPVAVVSLPASHAPYYSMPERLAEAIADFADAPAEYRQTATKAGPDRPAGADGGRADRADLP
B2: unnamed (protein)
chain: MFNQIGKKSALSLMAAGSLMFSATALAIGGGGSGGGNNGGGGGCEADCGYERGPDPSVSLLEASTGPFSVRTSNVSSSVRGFGGGTIHYPTNTTGTMAAIVVIPGFVSPESSIAWWGPKLASHGFVVMTIGTNSGFDQPASRASQLNNALDYLIEQNGSSRSPINGMIDTDRLGVMGWSMGGGGTLRVATEGRVSAAIPLAPWDSSSSQFRSIDTPTLIFACENDSTAPVRSHADPFYDAIPDSTAKAFVELDGGGHTCANGSSGFGGSYNDVLSRLGVSWMKLHLDKDQRYNQFVCGPNHESDRSISEYRGTCPY
B3: unnamed (protein)
chain: MRKAPLLRFTLASLALACSQALAGPSPYSTLIVFGDSLADAGQFPDLVGGTPGARFTNRDADGNFAPVSPMILGGRLGVAPGDLNPSTSVGIQPDGNNWAVGGYTTQQILDSITTTSETVIPPGNPNAGLVLRERPGYLANGLRADPNALYYLTGGGNDFLQGLVNSPADAVAAGARLAASAQALQQGGARYIMVWLLPDLGQTPNFSGTPQQNPLSLLSAAFNQSLISQLGQIDAQIIPLNIPLLLSEALASPSQFGLASDQNLVGTCYSGDSCVENPVYGINGTTPDPTKLLFNDSVHPTIAGQQLIADYAYSILAAPWELTLLPEMAHASLRAHQDELRNQWQTPWQAVGQWQAFVASGAQDLDFDGQHSAASGDGRGYNLTVGGSYRLNDAWRLGLAGGANRQKLEAGEQDSDYKLNSYMASAFAQYRQDRWWADAALTAGHLDYSDLKRTFALGVNDRSEKGDTDGEAWAMSGRLGYNLAADTSNWQLAPFISADYARVKVDGYDEKSGRSTALGFDDQERTSRRLGVGLLGSVQVLPSTRLFAEVAQEHEFEDDEQDVTMHLTSLPANDFTLTGYTPHSDLTRASLGVSHELVAGVHLRGNYNWRKSDELTQQGISVGVSVDF
B4: unnamed (protein)
chain: MSEEVSKNLSETLFVKHKQAKETSALTQYMPTSQSLLDEIKEKNGFSWYRNLRRLQWVWQGVDPIEQEQVLARIASSKHSRTDEQWLDTVMGYHSGNWAYEWTRLGMEHQKRAGEMTNEAASEALFSASLCYSIAGYPHLKSDNLAIQAQVLANSAYLEAAKKSKYIIKQLEIPFEKGKITAHLHLTNTDKPHPVVIVSAGLDSLQTDMWRLFRDHLAKHDIAMLTVDMPSVGYSSKYPLTEDYSRLHQAVLNELFSIPYVDHHRVGLIGFRFGGNAMVRLSFLEQEKIKACVILGAPIHDIFASPQKLQQMPKMYLDVLASRLGKSVVDIYSLSGQMAAWSLKVQGFLSSRKTKVPILAMSLEGDPVSPYSDNQMVAFFSTYGKAKKISSKTITQGYEQSLDLAIKWLEDELLR
B5: unnamed (protein)
chain: MWLLPLVLTSLASSATWAGQPASPPVVDTAQGRVLGKYVSLEGLAQPVAVFLGVPFAKPPLGSLRFAPPQPAEPWSFVKNTTSYPPMCCQDPVVEQMTSDLFTNGKERLTLEFSEDCLYLNIYTPADLTKRGRLPVMVWIHGGGLVLGGAPMYDGVVLAAHENVVVVAIQYRLGIWGFFSTGDEHSRGNWGHLDQVAALHWVQENIANFGGDPGSVTIFGESAGGESVSVLVLSPLAKNLFHRAISESGVALTVALVRKDMKAAAKQIAVLAGCKTTTSAVFVHCLRQKSEDELLDLTLKMKFLTLDFHGDQRESHPFLPTVVDGVLLPKMPEEILAEKDFNTVPYIVGINKQEFGWLLPTMMGFPLSEGKLDQKTATSLLWKSYPIANIPEELTPVATDKYLGGTDDPVKKKDLFLDLMGDVVFGVPSVTVARQHRDAGAPTYMYEFQYRPSFSSDKKPKTVIGDHGDEIFSVFGFPLLKGDAPEEEVSLSKTVMKFWANFARSGNPNGEGLPHWPMYDQEEGYLQIGVNTQAAKRLKGEEVAFWNDLLSKEAAKKPPKIKHAEL
B6: unnamed (protein)
chain: MSKISEAVKRARAAFSSGRTRPLQFRIQQLEALQRLIQEQEQELVGALAADLHKNEWNAYYEEVVYVLEEIEYMIQKLPEWAADEPVEKTPQTQQDELYIHSEPLGVVLVIGTWNYPFNLTIQPMVGAIAAGNSVVLKPSELSENMASLLATIIPQYLDKDLYPVINGGVPETTELLKERFDHILYTGSTGVGKIIMTAAAKHLTPVTLELGGKSPCYVDKNCDLDVACRRIAWGKFMNSGQTCVAPDYILCDPSIQNQIVEKLKKSLKEFYGEDAKKSRDYGRIISARHFQRVMGLIEGQKVAYGGTGDAATRYIAPTILTDVDPQSPVMQEEIFGPVLPIVCVRSLEEAIQFINQREKPLALYMFSSNDKVIKKMIAETSSGGVAANDVIVHITLHSLPFGGVGNSGMGSYHGKKSFETFSHRRSCLVRPLMNDEGLKVRYPPSPAKMTQH
B7: unnamed (protein)
chain: MAKEILVAYGVDIDAVAGWLGSYGGEDSPDDISRGLFAGEVGIPRLLKLFKKYHLPATWFSPGHSIETFSEQMKMIVDAGHEVGAHGYSHENPIAMTAKQEEDVLLKSVELIKDLTGKAPTGYVAPWWEFSNITNELLLKHGFKYDHSLMHNDFTPYYVRVGDSWSKIDYSLEAKDWMKPLIRGVETDLVEIPANWYLDDLPPMMFIKKSPNSFGFVSPHDIGQMWIDQFDWVYREMDYAVFSMTIHPDVSARPQVLLMHEKIIEHINKHEGVRWVTFNEIADDFLKRNPRKK
B8: unnamed (protein)
chain: MNFPRASRLMQAAVLGGLMAVSAAATAQTNPYARGPNPTAASLEASAGPFTVRSFTVSRPSGYGAGTVYYPTNAGGTVGAIAIVPGYTARQSSIKWWGPRLASHGFVVITIDTNSTLDQPSSRSSQQMAALRQVASLNGTSSSPIYGKVDTARMGVMGWSMGGGGSLISAANNPSLKAAAPQAPWDSSTNFSSVTVPTLIFACENDSIAPVNSSALPIYDSMSRNAKQFLEINGGSHSCANSGNSNQALIGKKGVAWMKRFMDNDTRYSTFACENPNSTRVSDFRTANCS
B9: unnamed (protein)
chain: MKEGKHFVLVHGACHGGWSWYKLKPLLEAAGHKVTALDLAASGTDLRKIEELRTLYDYTLPLMELMESLSADEKVILVGHSLGGMNLGLAMEKYPQKIYAAVFLAAFMPDSVHNSSFVLEQYNERTPAENWLDTQFLPYGSPEEPLTSMFFGPKFLAHKLYQLCSPEDLALASSLVRPSSLFMEDLSKAKYFTDERFGSVKRVYIVCTEDKGIPEEFQRWQIDNIGVTEAIEIKGADHMAMLCEPQKLCASLLEIAHKYN
B10: unnamed (protein)
chain: B9 chain with G12T
B11: unnamed (protein)
chain: B9 chain with G12T, M239K
B12: unnamed (protein)
chain: MIRMALKPLVAACLLASLSTAPQAAPSPYSTLVVFGDSLSDAGQFPDPAGPAGSTSRFTNRVGPTYQNGSGEIFGPTAPMLLGNQLGIAPGDLAASTSPVNAQQGIADGNNWAVGGYRTDQIYDSITAANGSLIERDNTLLRSRDGYLVDRARQGLGADPNALYYITGGGNDFLQGRILNDVQAQQAAGRLVDSVQALQQAGARYIVVWLLPDLGLTPATFGGPLQPFASQLSGTFNAELTAQLSQAGANVIPLNIPLLLKEGMANPASFGLAADQNLIGTCFSGNGCTMNPTYGINGSTPDPSKLLFNDSVHPTITGQRLIADYTYSLLSAPWELTLLPEMAHGTLRAYQDELRSQWQADWENWQNVGQWRGFVGGGGQRLDFDSQDSAASGDGNGYNLTLGGSYRIDEAWRAGVAAGFYRQKLEAGAKDSDYRMNSYMASAFVQYQENRWWADAALTGGYLDYDDLKRKFALGGGERSEKGDTNGHLWAFSARLGYDIAQQADSPWHLSPFVSADYARVEVDGYSEKGASATALDYDDQKRSSKRLGAGLQGKYAFGSDTQLFAEYAHEREYEDDTQDLTMSLNSLPGNRFTLEGYTPQDHLNRVSLGFSQKLAPELSLRGGYNWRKGEDDTQQSVSLALSLDF

Each protein was assayed on p-NP-C2. Conditions: pH 7.5; 37 °C.

| Protein | Km [µM] | kcat [s⁻¹] | kcat/Km [M⁻¹ s⁻¹] |
| --- | --- | --- | --- |
| B1 | 124 | 183 | 1.48e+06 |

Same assay, conditions: 20 °C

| Protein | Km [µM] | kcat [s⁻¹] | kcat/Km [M⁻¹ s⁻¹] |
| --- | --- | --- | --- |
| B2 | 2100 | 4.74 | 2260 |

Each protein was assayed on p-NP-C4. Conditions: pH 7.2.

| Protein | Km [µM] | kcat [s⁻¹] | kcat/Km [M⁻¹ s⁻¹] |
| --- | --- | --- | --- |
| B3 | 300 | – | – |
| B12 | 700 | 247 | 353000 |

Each protein was assayed on p-NP-C2. Conditions: pH 7.5; 25 °C.

| Protein | Km [µM] | kcat [s⁻¹] | kcat/Km [M⁻¹ s⁻¹] |
| --- | --- | --- | --- |
| B4 | 18600 | 0.67 | 36 |

Same assay, conditions: pH 7.4; 37 °C

| Protein | Km [µM] | kcat [s⁻¹] | kcat/Km [M⁻¹ s⁻¹] |
| --- | --- | --- | --- |
| B5 | 520 | 20.2 | 38800 |

What follows are proteins tested on p-NP-C4. Conditions: pH 7.4; 37 °C.

| Protein | Km [µM] | kcat [s⁻¹] | kcat/Km [M⁻¹ s⁻¹] |
| --- | --- | --- | --- |
| B5 | 140 | 27.4 | 196000 |

These proteins were tested on p-NP-C2. Conditions: pH 7.4; 25 °C.

| Protein | Km [µM] | kcat [s⁻¹] | kcat/Km [M⁻¹ s⁻¹] |
| --- | --- | --- | --- |
| B6 | 200 | 1.43 | 7170 |

Same assay, conditions: pH 6; 30 °C

| Protein | Km [µM] | kcat [s⁻¹] | kcat/Km [M⁻¹ s⁻¹] |
| --- | --- | --- | --- |
| B7 | 180 | 20.2 | 112000 |

Same assay, conditions: pH 7; 30 °C; part of the chain shown

| Protein | Km [µM] | kcat [s⁻¹] | kcat/Km [M⁻¹ s⁻¹] |
| --- | --- | --- | --- |
| B8 | 4600 | 27 | 5870 |

Same assay, conditions: pH 7.2; 25 °C

| Protein | Km [µM] | kcat [s⁻¹] | kcat/Km [M⁻¹ s⁻¹] |
| --- | --- | --- | --- |
| B9 | 1400 | 2 | 1430 |
| B10 | 8700 | 0.0283 | 3.26 |
| B11 | 7600 | 0.025 | 3.29 |
